This passage reports self-cleavage results from the RNAGym collection of RNA variant scans (doi:10.7554/elife.90254).

B1: LINE1-full (parent)
chain: UACGUAGGUGGUUUUCCCCUGAUAGUGCUAAGGGGGCCUGGAAGUUUGGACUGGGCAGAGCUCAACACAGCGUGGCAAAGUGGCUGUGGCUAGACUGCCUCUCUGGAUUCCUCGUCACUCAGCAGGGCAUCUCUGAGAGAAAUGCC

Variants of B1 are the subject of this data set. Briefly: self-cleavage, relative activity (ratio to wild type); higher = more cleavage; in vitro, sequencing; the parent is a self-cleaving ribozyme.
As for G11A A78G, the self-cleavage stood at 1.38.

Turning to U9G A77U, the self-cleavage amounted to 1.44.

Regarding U9C U45C, the self-cleavage came to 1.27.

Turning to G11A G49U, the self-cleavage was determined as 1.35.

Turning to U12C G55A, the self-cleavage was 0.64.

As to U9G A31C, the self-cleavage is 1.72.

Take U12C U91C: the self-cleavage amounted to 0.92.

With U12A U87C, the self-cleavage amounted to 0.25.

For the variant G11U U20C, the self-cleavage came out at 0.34.

On to U12C G41A, for which the self-cleavage was 1.26.

As for G10A U130G, the self-cleavage worked out at 0.93.

Turning to U12C G126A, the self-cleavage amounted to 1.73.

On to U12G A42C, for which the self-cleavage was found to be 1.1.

Take G10A G32A: the self-cleavage was 0.73.

On to U12C G127C, for which the self-cleavage stood at 1.84.

Regarding U9G A67G, the self-cleavage is 0.37.

For the variant U12C U73A, the self-cleavage was determined as 1.75.

With U12C U73C, the self-cleavage is 1.65.

Turning to U12A G49A, the self-cleavage was 1.05.

Turning to G11A A65G, the self-cleavage came to 0.02.

Take U12C A107C: the self-cleavage was 1.53.

Turning to U12C A107U, the self-cleavage was determined as 0.66.

As to G10A A43G, the self-cleavage stood at 0.83.

Turning to G10A U12C, the self-cleavage stood at 1.04.

For the variant U12C G32A, the self-cleavage was 1.54.

Regarding U9C G82U, the self-cleavage was 1.34.

Take G10A U26C: the self-cleavage worked out at 0.95.

As to U12C U102A, the self-cleavage amounted to 1.66.

As to U9G U45C, the self-cleavage came to 0.25.

U9G U45A: the self-cleavage turned out to be 0.73.

For U12C U81A, the self-cleavage turned out to be 1.

As to U12C U81C, the self-cleavage stood at 1.11.

Turning to G10A A59G, the self-cleavage is 0.17.

For U9C U39C, the self-cleavage is 1.14.

Regarding U9C U39A, the self-cleavage amounted to 1.17.

With U12C G122U, the self-cleavage worked out at 1.04.

U12C U29A: the self-cleavage was 1.16.

As for U12C U29C, the self-cleavage turned out to be 1.44.

Take U9C U12G: the self-cleavage came out at 1.15.

On to U9C U12C, for which the self-cleavage was found to be 1.13.

For the variant U9C U12A, the self-cleavage turned out to be 1.51.

With U12C U115C, the self-cleavage came out at 1.21.

Take G11A U29A: the self-cleavage was 1.34.

For U12C U52A, the self-cleavage was found to be 1.41.

For the variant U12A U52A, the self-cleavage was found to be 1.28.

For U12A U52C, the self-cleavage is 1.06.

Take U9G U73C: the self-cleavage worked out at 1.24.

For the variant U12C G40U, the self-cleavage worked out at 1.2.

As for U12C G97A, the self-cleavage is 0.22.

With U12C A141U, the self-cleavage was determined as 0.87.

Take U12C A141G: the self-cleavage came to 1.5.

Turning to G10A U62C, the self-cleavage turned out to be 0.06.

Turning to U12C G74A, the self-cleavage worked out at 1.

U12A A94G: the self-cleavage is 0.55.

As for G11A U119A, the self-cleavage came out at 0.93.

Regarding G11A A124U, the self-cleavage was determined as 1.43.

G10U A59U: the self-cleavage worked out at 0.72.

For U12C C71U, the self-cleavage was found to be 0.9.

On to U12A C123U, for which the self-cleavage was 1.38.

As for U9G G44A, the self-cleavage was 1.53.

In the case of U12C U14A, the self-cleavage amounted to 0.81.

On to U12C U14G, for which the self-cleavage was 0.59.

With U12C C145G, the self-cleavage turned out to be 1.06.

On to G11A U12G, for which the self-cleavage was found to be 0.47.

Consider G11A U12C, for which the self-cleavage turned out to be 0.33.

U12C C84U: the self-cleavage was found to be 0.15.

As to U12A A142G, the self-cleavage was determined as 1.31.

As to U12C U96C, the self-cleavage is 0.19.

U12C U96A: the self-cleavage is 0.1.

For U12A A141G, the self-cleavage was 1.19.

As to G10A U47C, the self-cleavage is 1.37.

In the case of U12A G127A, the self-cleavage amounted to 0.66.

Regarding U9G U81C, the self-cleavage was 0.83.

In the case of G10A U23C, the self-cleavage was 1.49.

In the case of U12G A43C, the self-cleavage is 1.02.

Regarding U12G A43U, the self-cleavage worked out at 0.81.

As for U12G A43G, the self-cleavage worked out at 1.41.

With U9C G137A, the self-cleavage was found to be 1.15.

U12C C101U: the self-cleavage came to 1.02.

As for U12C C101A, the self-cleavage amounted to 1.72.

On to G11A A121U, for which the self-cleavage worked out at 0.95.

As for G11U A124U, the self-cleavage was determined as 1.31.

Regarding U12A A30G, the self-cleavage came to 0.94.

U12A U96G: the self-cleavage worked out at 0.38.

Consider U9G C116G, for which the self-cleavage is 1.18.

As for U12G A50G, the self-cleavage amounted to 1.2.

As to U12A A59U, the self-cleavage worked out at 0.56.

As for U12A U134C, the self-cleavage stood at 0.73.

As for U12A U134A, the self-cleavage amounted to 0.6.

With U12C A129G, the self-cleavage stood at 1.4.

Turning to U12A A121G, the self-cleavage stood at 1.43.

Regarding U12C U143C, the self-cleavage came to 1.46.

Turning to G11U A136U, the self-cleavage came out at 1.26.

For the variant U12C U100C, the self-cleavage amounted to 1.6.

Take U9G A94G: the self-cleavage stood at 0.22.

On to U9G U132A, for which the self-cleavage worked out at 0.59.

In the case of U9G U62C, the self-cleavage is 0.16.

On to U12C U39A, for which the self-cleavage turned out to be 1.32.

As to U12C U39C, the self-cleavage was 1.4.

With G10A C90U, the self-cleavage amounted to 0.06.

Take G10A U45C: the self-cleavage came out at 1.4.

Turning to U12C A121U, the self-cleavage came out at 1.11.

With U12C A121G, the self-cleavage was 1.74.

Take U12A U100A: the self-cleavage came out at 0.87.

U9G C68U: the self-cleavage stood at 0.21.

U12A U85A: the self-cleavage worked out at 0.15.

On to G10A C99A, for which the self-cleavage was determined as 0.42.

Turning to U9G G93C, the self-cleavage is 0.11.

Take U9C U143C: the self-cleavage turned out to be 1.31.

As for U12C G35A, the self-cleavage was 1.62.

U12C C111U: the self-cleavage amounted to 1.74.

On to G11A A64U, for which the self-cleavage stood at 0.3.

For U12A U73G, the self-cleavage worked out at 0.73.

U12A U73C: the self-cleavage came out at 1.11.

As to U12A U73A, the self-cleavage worked out at 1.47.

G11A C28G: the self-cleavage turned out to be 1.12.

Take U9G C56U: the self-cleavage was found to be 0.24.

As for U9G A50G, the self-cleavage worked out at 0.93.

For U12C A69C, the self-cleavage worked out at 0.09.

As for U9C G36U, the self-cleavage came out at 2.08.

Consider G11A A79G, for which the self-cleavage was found to be 0.56.

With U12A U102C, the self-cleavage was determined as 1.42.

In the case of U12A A138G, the self-cleavage was 1.37.

In the case of G11C G48U, the self-cleavage came to 1.25.

Turning to U9C U112A, the self-cleavage was 1.46.

For the variant U9C U112C, the self-cleavage is 1.45.

In the case of U9G A42G, the self-cleavage was 1.4.

Consider U12C A57U, for which the self-cleavage was 0.22.

As for U12C G105A, the self-cleavage was 1.54.

U12A A69G: the self-cleavage is 0.42.

In the case of U12C A42U, the self-cleavage was 1.

Take U12C G33U: the self-cleavage stood at 1.36.

With U12C G33C, the self-cleavage worked out at 1.28.

Regarding U9C U104C, the self-cleavage amounted to 1.82.

For U12A U104A, the self-cleavage was 1.19.

With U12G A22C, the self-cleavage stood at 1.68.

In the case of U9C U52A, the self-cleavage is 2.31.

For the variant U9C U52C, the self-cleavage came out at 1.36.

As to U12C C103A, the self-cleavage was determined as 1.01.

Regarding U12C U85C, the self-cleavage is 0.12.

For G11A C51U, the self-cleavage was 1.38.

For U12C U62C, the self-cleavage is 0.09.

U12C U62A: the self-cleavage came to 0.13.

For U9C G89U, the self-cleavage worked out at 0.08.

Regarding U9C G89C, the self-cleavage stood at 0.05.

With U12A U45C, the self-cleavage amounted to 0.82.

Consider U9C U29A, for which the self-cleavage turned out to be 1.1.

For U12C A78G, the self-cleavage was determined as 0.95.

In the case of U12C A78C, the self-cleavage was found to be 2.54.

With U12C U87C, the self-cleavage is 0.21.

On to U12C G93A, for which the self-cleavage came to 0.08.

Take G11A U20G: the self-cleavage amounted to 1.05.

Regarding G11A U20C, the self-cleavage came to 2.58.

As to G10A A78U, the self-cleavage was determined as 1.83.

Take G11A U62G: the self-cleavage came to 0.03.

Take G10U U130C: the self-cleavage is 0.81.

For the variant G11A A59G, the self-cleavage came out at 0.08.

In the case of U12A A77G, the self-cleavage amounted to 1.88.

On to G10U U91C, for which the self-cleavage came out at 0.44.

Consider G10A U73G, for which the self-cleavage was 1.14.

As to G10U C145A, the self-cleavage came out at 1.

In the case of U9C G122A, the self-cleavage was 1.43.

Regarding U12C C28U, the self-cleavage was determined as 0.74.

Regarding U12C A138G, the self-cleavage stood at 1.37.

For U9C U81G, the self-cleavage is 1.31.

Take U9G U134C: the self-cleavage was determined as 0.71.

Take U9C U20A: the self-cleavage was determined as 0.95.
